Experimental findings from the RNAGym collection of RNA variant scans (doi:10.1073/pnas.2313332121) are described below.

B1: TPR t1 (parent)
chain: GACCAAUCUGCCCUCAGAGCUCGAGAACAUCUUCGGAUGCAGAGGAGGCAGGCUUCGGUGGCGCGAUAGCGCCAACGUCCUCAACCUCCAAUGCAUCCCACCACAUGAUGAUGCCUGAAGAGCCUUGGUUUUUUG

Variants of B1 are the subject of the series. As to the kind of experiment: polymerase ribozyme fitness, log enrichment relative to wild type (log ratio); higher = more active; in vitro selection for triplet polymerase activity. The gist of the method: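 Mutant libraries of each subunit of a heterodimeric triplet polymerase ribozyme were built by PCR and transcribed. Each library went through one round of in vitro selection in triplicate: annealing with biotinylated primer, partner subunit and triplets, frozen incubation at −7 °C, gel excision of extended constructs, streptavidin-bead capture and RT-PCR. Input and output libraries were Illumina-sequenced; only genotypes with ≥10 input reads and ≥1 read per output were kept. Fitness is log2(genotype enrichment/wild-type enrichment), using inverse-variance-weighted replicate averages.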
Regarding U9A C34A C72A C102U C123A G128U, the “polymerase ribozyme fitness (log ratio)” value is -1.61. On to U9A G42A C70U U129A, for which the “polymerase ribozyme fitness (log ratio)” value was -4.53. In the case of U9G C85U, the “polymerase ribozyme fitness (log ratio)” value was -0.222. With G10C C20U G48C C114A C123U the figure was -3.33; with G10A G61U A100C G135U, -1.17; with U9A C49G G93C G120A U131A, 0.443. Consider U9G G58U U112A G120A U130C, for which the “polymerase ribozyme fitness (log ratio)” value turned out to be 0.977. With U9A G17A G113A the figure was -3.11; with U9A A91G, -0.793; with U9G G36U G57U C62U, -1.11. With G10A G45A A95C C102A, the “polymerase ribozyme fitness (log ratio)” value was -2.76. Take U9C C11U G61A C88G: the “polymerase ribozyme fitness (log ratio)” value is -0.498. With G10A C53A G71C C104U G110A C114G the figure was -6.44. For the variant G10A G120U G122A, the “polymerase ribozyme fitness (log ratio)” value was 1.51.

Consider U9A C56A C82A C85A, for which the “polymerase ribozyme fitness (log ratio)” value is -0.979. Consider U9G G42A A105U, for which the “polymerase ribozyme fitness (log ratio)” value is -4.37. The value for U9A C13G A16U A41U was -1.62; that for U9G C11G C94U was -4.64.

With U9G C56U G61U, the “polymerase ribozyme fitness (log ratio)” value is -4.53. With U9A C97G A105G C115U G117A the figure was -7.76; with U9A C72U C123G U134G, 2.67. As to U9C G10A A37U, the “polymerase ribozyme fitness (log ratio)” value was -0.108. On to G10A C56U U96C, for which the “polymerase ribozyme fitness (log ratio)” value is -0.627.

With U9C G69U A100U U112A C123U, the “polymerase ribozyme fitness (log ratio)” value was determined as 2.09. With G10A G71A C80A the figure was -4.78. With U9C G71U U78G U132A the figure was -0.414; with G10A C62A A91C C123U, -0.505; with G10C G61A G93C, -1.11.

Regarding U9A G19C A41U, the “polymerase ribozyme fitness (log ratio)” value is -1.63. As to G10A G42U C85G, the “polymerase ribozyme fitness (log ratio)” value was -1.94. Take U9G C12G G36A C101G: the “polymerase ribozyme fitness (log ratio)” value is -1.32. The value for G10A C20U A27C G61U C102U was -6.05; that for U9G C72A was -0.48. The value for G10C A37U C72A was -0.966. In the case of U9A A83G, the “polymerase ribozyme fitness (log ratio)” value is -0.27. Take U9A C70U: the “polymerase ribozyme fitness (log ratio)” value amounted to 0.25. U9G G39A C56U: the “polymerase ribozyme fitness (log ratio)” value worked out at 0.0691. The value for U9A C12U A37G G61A was 0.106. The value for G10A C70U A121U was 1.19; that for U9A G39C G61C U78A U87G G110U was -2; that for G10C A26C A37U U78C A83U U87A C115G G127A was -6.88.

Take G10C A26G G69A U125A: the “polymerase ribozyme fitness (log ratio)” value was -5.51. The value for U9C U67C C82G U109C was -6.64. Regarding U9C C72U, the “polymerase ribozyme fitness (log ratio)” value came to 0.343. As to U9C C72G, the “polymerase ribozyme fitness (log ratio)” value turned out to be 0.104. For the variant U9G G10A U14G A46G G48A A66G, the “polymerase ribozyme fitness (log ratio)” value is -2.94. With U9G C99A the figure was -5.82.

In the case of U9C C15A G45C G57C U59A G120A, the “polymerase ribozyme fitness (log ratio)” value came to 0.743. In the case of U9C U78C, the “polymerase ribozyme fitness (log ratio)” value came out at 0.403. With U9C A90G C115U U131C the figure was 1.24.

As for G10C C13G G61A U106G A118U, the “polymerase ribozyme fitness (log ratio)” value was -2.68.

For G10A A37U C53A C56G G69A C88U G120C G122U, the “polymerase ribozyme fitness (log ratio)” value was -1.99. For G10A C49U, the “polymerase ribozyme fitness (log ratio)” value is -0.363. The value for U9A C20G was -2.47; that for U9C G44A C79U C86U G120A was 0.952. With U9G C62G G120C the figure was 0.877. For U9G G48U C88A, the “polymerase ribozyme fitness (log ratio)” value was -1.04. The value for G10C G42U was -2.19; that for U9C C53U A83C was 0.688; that for G10C U112A was 0.23.

In the case of U9G G45A C49U C72U G93A, the “polymerase ribozyme fitness (log ratio)” value was -1.56. The value for U9G G60U C62U was -1.11; that for U9C G17A A18G G69U G113U was -4.32; that for U9G A111U A118U G120A was -2.78. With U9A G36U G120U the figure was 1.67. The value for U9G A18C C56G G120A U130A was -1.19; that for U9G C34G was -4.16. As for U9G C34A, the “polymerase ribozyme fitness (log ratio)” value is -1.59. With U9G C34U the figure was -3.92; with U9G A18C G117C, 0.268. With U9C G60U A105U A119G the figure was -1.05; with G10C G69A, -4.78; with U9G A26U C72U, -2.22.

For the variant G10C C70U A108U U112A U132C, the “polymerase ribozyme fitness (log ratio)” value was -6.08. With G10A G63U C86U G120A the figure was 0.0567; with G10C C34A, -3.12; with U9C C70U G93A, 0.136.

As to U9C A16U C72G C88A A95C A111U, the “polymerase ribozyme fitness (log ratio)” value is -6.59. The value for G10C G57C G117C was -4.35; that for U9G G10C C11A C15A A37G U78C C85U A95U C123U was -3.97; that for U9G G71U was 0.107.

On to U9G G52U C70U C88G C123A, for which the “polymerase ribozyme fitness (log ratio)” value is -0.768. With G10A C11A C15A, the “polymerase ribozyme fitness (log ratio)” value was -4.29. With G10C A103U C123U the figure was -5.06; with U9C U92A C114A, -1.69. With U9A C115G the figure was 1.95; with G10C C12U U14A G71U G107U, -5.41. With U9C G60U C99A the figure was -6.14; with U9G G51C G61U G127C, -3.3; with U9G C70A C76U, -3.45. Turning to U9G C13U G17U U87C, the “polymerase ribozyme fitness (log ratio)” value is -0.186.

As to G10C C15A G69U U112G, the “polymerase ribozyme fitness (log ratio)” value is -1.87. The value for U9G G36A C101G A121U was -0.24; that for U9G G61U G117A was 1.58; that for U9C G19C was -2.29. Regarding U9C G19A, the “polymerase ribozyme fitness (log ratio)” value is -1.95. The value for U9G C12G C28G C40A C85A A90C C104A G110C was -4.42. With U9A U78C U96A C124U the figure was 1.26; with G10A C13U U30C C31A G42U C123A U126G, -5.09.

With G10C G113C, the “polymerase ribozyme fitness (log ratio)” value was -2.27. The value for U9G C22U U54G C104U was -4.59; that for G10C A26C G120C G122A C123G G128A was -5.85.

With G10C C15A, the “polymerase ribozyme fitness (log ratio)” value is -2.21.

On to G10A C73G, for which the “polymerase ribozyme fitness (log ratio)” value is -0.355. The value for G10A C11U C28A was -4.2; that for G10A A90C A121C was 0.254. Take U9G G69C A105U U112G: the “polymerase ribozyme fitness (log ratio)” value is -4.11. With G10A A41U C53U U78G C89A A105U G120U the figure was -5.97; with G10C A83U U106G, -3.53. With U9A C53U C72U U92A G127A the figure was -3.85; with U9C C56G, 0.559. With U9C C56A the figure was -0.0544; with U9A G39A C56A G60A, 0.000466; with U9A G10A C40A U78C G110U C123U, -2.19. For the variant G10A G93U C102A, the “polymerase ribozyme fitness (log ratio)” value was -3.7. The value for U9G G48U G93C A111C was -1.91. Consider U9A C34A G51A C70U A121C, for which the “polymerase ribozyme fitness (log ratio)” value is -6.25.

As to U9A C12A A16C A26U G47U, the “polymerase ribozyme fitness (log ratio)” value is -5.44. With G10A U33G the figure was -4.61. With G10C U32C G52A U112A G128A the figure was -2.52. Regarding U9A U55A C56A G63U, the “polymerase ribozyme fitness (log ratio)” value is -5.03. Consider G10A G107A C123U C124A, for which the “polymerase ribozyme fitness (log ratio)” value was -4.28. Regarding U9G G48U, the “polymerase ribozyme fitness (log ratio)” value was -1.27. With U9G C97A the figure was -4.53; with G10A G61U G122A, 0.738; with U9C A43U C73U C79U A111G, -0.526. G10A A83C G110C U133A: the “polymerase ribozyme fitness (log ratio)” value is -3.93. For the variant U9G C53U G61C C124G U131A, the “polymerase ribozyme fitness (log ratio)” value amounted to 1.49. Turning to U9C C22U A46C A103G G113C, the “polymerase ribozyme fitness (log ratio)” value was -7.29.

As to U9A C73U G117A, the “polymerase ribozyme fitness (log ratio)” value was found to be 0.559. As to U9A C72U G110C U130A, the “polymerase ribozyme fitness (log ratio)” value is -4.28. For G10C C28G, the “polymerase ribozyme fitness (log ratio)” value was -3.74. Turning to G10A G58C A111G, the “polymerase ribozyme fitness (log ratio)” value came to 0.287.

U9C A16G G57C G110C: the “polymerase ribozyme fitness (log ratio)” value is -4.22. On to U9A C56G, for which the “polymerase ribozyme fitness (log ratio)” value is -0.125. U9G G61C C102A G122A U125A: the “polymerase ribozyme fitness (log ratio)” value was -4.92. G10A C56G G117A: the “polymerase ribozyme fitness (log ratio)” value was -3.95. With U9G G36U G60C A68G U78A C88A the figure was -6.1; with U9G A46C G61A U87A G93C C115A U116C A119C, -3.51. The value for G10C G25C C31G C89A C114U was -7.2.

As for U9A C79A G93U C101A, the “polymerase ribozyme fitness (log ratio)” value was -2.59.

As for G10A A26G A103U C104A A121C, the “polymerase ribozyme fitness (log ratio)” value was -0.666.

For the variant U9A G61U C89U U92A U129A, the “polymerase ribozyme fitness (log ratio)” value was -3.6. In the case of U9A G35A, the “polymerase ribozyme fitness (log ratio)” value was -3.25. On to G10C A18U, for which the “polymerase ribozyme fitness (log ratio)” value is -3.34. G10A C72U G113A: the “polymerase ribozyme fitness (log ratio)” value is -1.32. With G10A C20A U87A C124U the figure was -0.469; with U9G A66U C80A C85U, -5.32. The value for G10A C28G U106A G127U G128C was -3.76; that for U9G C70A G71A G127C was -4.46; that for U9A U21G A41U G45A was -4.48. Regarding G10A G52A G60A C79A, the “polymerase ribozyme fitness (log ratio)” value was -1.36.

In the case of U9G C28U C56A C114U A118U U125G U132A, the “polymerase ribozyme fitness (log ratio)” value is -5.4. Take U9G A18C C56G C72A: the “polymerase ribozyme fitness (log ratio)” value was -3.47.

Turning to G10A G39U A90C U106A, the “polymerase ribozyme fitness (log ratio)” value is -2.41. Consider G10A A29C G39A G69U, for which the “polymerase ribozyme fitness (log ratio)” value is -2.05. Regarding U9G G10C C11A C89U A103U U109A, the “polymerase ribozyme fitness (log ratio)” value was -5.83. Regarding G10C C89A, the “polymerase ribozyme fitness (log ratio)” value is -2.73. With U9A C31G A83C G107C the figure was -1.45; with G10A G36C A50G U92G, -3.51; with U9G C123G, 1.31.

As for U9G C123U, the “polymerase ribozyme fitness (log ratio)” value was found to be 0.831. In the case of U9G G10C C94G A121C C124G, the “polymerase ribozyme fitness (log ratio)” value was 1.48. Turning to G10A C13U U30G A46C C72U C123G, the “polymerase ribozyme fitness (log ratio)” value is -6.25. Regarding G10C G36C G45C U59G C62U C80U, the “polymerase ribozyme fitness (log ratio)” value was -3.25. With U9G G39C G42U C64U the figure was -2; with U9G C13G, 0.0659.
